Laboratory results taken from paper PMC4598629.

Tests used:
[1] = molecular target: SOAR, purified wild-type protein (UniProt Q13586); test: SEC; purified SOAR and SOAR-F394H, ~0.5 mg/ml, Superdex-200 16/60, 200 mM NaCl, 20 mM Mes-NaOH pH 6.5, 2.5 ml/min; calibrated with protein standards; monomers to dimer
[2] = molecular target: SOAR, purified wild-type protein (UniProt Q13586); test: cross-linking; purified proteins dialysed against PBS, 0.5 mg/ml, disuccinimidyl suberate 0, 0.1 and 1 mM, 30 min, room temperature; SDS-PAGE, Coomassie blue; monomers to dimer
[3] = molecular target: SOAR-F394H, purified protein (UniProt Q13586); test: SEC; purified SOAR and SOAR-F394H, ~0.5 mg/ml, Superdex-200 16/60, 200 mM NaCl, 20 mM Mes-NaOH pH 6.5, 2.5 ml/min; calibrated with protein standards; monomers to dimer
[4] = molecular target: SOAR-F394H, purified protein (UniProt Q13586); test: cross-linking; purified proteins dialysed against PBS, 0.5 mg/ml, disuccinimidyl suberate 0, 0.1 and 1 mM, 30 min, room temperature; SDS-PAGE, Coomassie blue; monomers to dimer

SOAR, purified wild-type protein (from UniProt Q13586 344-442) (domain or fragment)
stoichiometry N [1]: 2 | stoichiometry N [2]: 2

SOAR-F394H, purified protein (from UniProt Q13586 344-442) (domain or fragment)
stoichiometry N [3]: 2 | stoichiometry N [4]: 2
